According to the supplement of paper PMC9170038:

Tested on: MS2 coat protein
Assay: apparent KD of MS2 coat protein; designed switch direction (-1 OFF switch, 1 ON switch): -1; higher = weaker reporter binding
Summary of the method: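 Designed RNA switches sharing common flanks were transcribed on Illumina chips by stalled E. coli RNA polymerase. They were titrated with SNAP-549-labelled MS2 coat protein, from 0.7 or 1.5 nM doubling to 3 µM, in Tris-HCl pH 7.5 buffer with KCl, MgCl2, BSA, DTT, tRNA and Tween-20. Titrations ran without input, with 200 uM small-molecule ligand, or with an oligonucleotide input. The apparent KD of each design is the median over its clusters, after curve-fitting of normalised cluster fluorescence.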

[1] = Eterna round: R95, input ligand: microRNA oligo, concentration not stated
[2] = input ligand: microRNA oligo, concentration not stated
[3] = Eterna round: R95, input ligand: FMN 200 uM
[4] = Eterna round: R95, input ligand: none

AGUCGGUCAGGAUAUGCAUACGUAGACAUGAGGAUCACCCAUGUGACGUGGGCCUGGUGUGUAGAAGGGACGAGCA [EX5 #82] (Eterna round: R97, puzzle: Exclusion 5)
apparent KD of MS2 coat protein (input ligand: FMN 200 uM): 0.0326 µM | apparent KD of MS2 coat protein (input ligand: none): 0.0176 µM

AGUCGUAAACAAGUUUCUGACAUGAGGAUCACCCAUGUGAGACUAAAAGUAUCAGAUUGCCUAAUAAGUAGCUCGUC [Eternabot (L2) Solution 29] (Eterna round: R97, puzzle: Sensor, turn-off variant 1)
apparent KD of MS2 coat protein (input ligand: FMN 200 uM): 0.0206 µM | apparent KD of MS2 coat protein (input ligand: none): 0.0235 µM

AGUCGUAGACAGGAUAUGCGGCUAAUAAAUAAAGCAGAAGGGUCUACUUGAGGAUCACCCAAGUGGGCGGUUUA [jl-ex6-4.20 ViennaUCT mod] (Eterna round: R97, puzzle: Exclusion 6)
apparent KD of MS2 coat protein (input ligand: FMN 200 uM): 0.0963 µM | apparent KD of MS2 coat protein (input ligand: none): 0.0231 µM

AGUCUGCUAGGAUAUACAUGAGGAUCACCCAUGUCUAUCAAAAGACUAUUAACCUGGUGUAGAAGGAGCUUGUA [Lasodiar] (puzzle: Exclusion 3)
apparent KD of MS2 coat protein [1]: 0.0107 µM

AGUGCGUAUGUGAGGAUAUGCUGGUCCUUGGAUCAGCAGAAGGCACAUGAGGAUCACCCAUGUGGUGUCGUACC [salish99_Bmod_Ex4_003] (puzzle: Brourd's mod of Exclusion 4)
apparent KD of MS2 coat protein [1]: 0.18 µM

AGUGCGUAUGUGAGGAUAUGCUGGUCCUUGGAUCGGCAGAAGGCACAUGAGGAUCACCCAUGUGGUGUCGUACU [salish99_Bmod_ex4_084] (puzzle: Brourd's mod of Exclusion 4)
apparent KD of MS2 coat protein [1]: 0.28 µM

AGUUAGAAAGGAUAUACAUGAGGAUCACCCAUGUAGGGCUGUUAGAGACCCGGUCUCUGUAGAAGGUUCGAACU [EX3 C.16] (Eterna round: R97, puzzle: Exclusion 3)
apparent KD of MS2 coat protein (input ligand: FMN 200 uM): 0.0308 µM | apparent KD of MS2 coat protein (input ligand: none): 0.0289 µM

AGUUCACAUGAGGAUCACCCAUGUGAGGAUAUGGAUUCGCUGGCCGUAGCCAGUGGAUCCAGAAGGCGCAUGAU [JL-ex1-4.14] (Eterna round: R97, puzzle: Exclusion 1)
apparent KD of MS2 coat protein (input ligand: FMN 200 uM): 0.0369 µM | apparent KD of MS2 coat protein (input ligand: none): 0.032 µM

AGUUGACGAGAAGGAUAUCCGAACCUUUAAAGAGGAGAAGGUCUAUCAACAUGAGGAUCACCCAUGUACAUCGCUCGGGUGUCC [Arenis] (Eterna round: R96, puzzle: Exclusion NG 1)
apparent KD of MS2 coat protein [2]: 0.0547 µM

AGUUGCGCAGGAUAUACAUGAGGAUCACCCAUGUGAGAGAAAUAAGUGAGGAAGAAAAGUAGAAGGGCGUGACA [Mat - Exclusion 3 - Mod of Salish D74] (puzzle: Exclusion 3)
apparent KD of MS2 coat protein [3]: 0.236 µM | apparent KD of MS2 coat protein [1]: 0.0406 µM | apparent KD of MS2 coat protein [4]: 0.0471 µM

AGUUGCGCAGGAUAUACAUGAGGAUCACCCAUGUGAGAGAAAUAAGUGAGGAAGAAAAGUAGAAGGGCGUGACG [Mat - Exclusion 3 - Mod of Salish D73] (puzzle: Exclusion 3)
apparent KD of MS2 coat protein [3]: 0.281 µM | apparent KD of MS2 coat protein [1]: 0.0538 µM | apparent KD of MS2 coat protein [4]: 0.0573 µM

AGUUGGCGAGGAUAUACAUGAGGAUCACCCAUGUAAAAAAAAAAAAAAAAAACUUCAUGUAGAAGGCGCUGACA [Starry Exclusion 3.4 (biggestlegoheroicafanever round 1 mod)] (Eterna round: R96, puzzle: Exclusion 3)
apparent KD of MS2 coat protein (input ligand: FMN 200 uM): 0.327 µM | apparent KD of MS2 coat protein [2]: 0.2 µM | apparent KD of MS2 coat protein (input ligand: none): 0.373 µM

AGUUGGCGAGGAUAUACAUGAGGAUCACCCAUGUAAGAGAUACGAGUAAGGUAAAUAUGUAGAAGGCGCUGACA [JR_Ex3_Sub076] (Eterna round: R97, puzzle: Exclusion 3)
apparent KD of MS2 coat protein (input ligand: FMN 200 uM): 0.251 µM | apparent KD of MS2 coat protein (input ligand: none): 0.0269 µM

AGUUGGCGAGGAUAUACAUGAGGAUCACCCAUGUGAAAUAUAAUAGUGAGGAAGAAAAGUAGAAGGCGCUGACA [Mat - Exclusion 3 - Mod of Salish D42] (puzzle: Exclusion 3)
apparent KD of MS2 coat protein [1]: 0.0427 µM

AGUUGGCGAGGAUAUACAUGAGGAUCACCCAUGUGAGAGGUACUAGUGAGGUCGAUUAGUAGAAGGCGCUGACA [Mat X3R4 m10] (Eterna round: R97, puzzle: Exclusion 3)
apparent KD of MS2 coat protein (input ligand: FMN 200 uM): 2.1 µM | apparent KD of MS2 coat protein (input ligand: none): 0.0483 µM

AGUUGGGAAGGAUAUACAUGAGGAUCACCCAUGUGAAAUUAUAGUGAGGAAAUGAAAAGUAGAAGGUCCUGACA [Mod of Mat 4 - Jieux - Exclusion 3] (Eterna round: R97, puzzle: Exclusion 3)
apparent KD of MS2 coat protein (input ligand: FMN 200 uM): 0.147 µM | apparent KD of MS2 coat protein (input ligand: none): 0.0358 µM

AGUUGUUGCGCAGGAUAUGAGGAUCACCCAUAGAAGGAUAUCGAAAGAGAAGGUCUGAGGAUUACCCAGAAGGGCGUGAUGACA [pwkr exNG2 2xF5 2xFMN.8] (Eterna round: R96, puzzle: Exclusion NG 2)
apparent KD of MS2 coat protein (input ligand: FMN 200 uM): 0.905 µM | apparent KD of MS2 coat protein [2]: 0.13 µM | apparent KD of MS2 coat protein (input ligand: none): 0.184 µM

AUAAAACGUGUAGGAUAUGCGUGGCGAAGCUAUGCAGAAGGACAUGAGGAUCACCCAUGUUCUAGCGUCUGCGUACAGAUGCUA [JL eng1 1.35 mod 4] (Eterna round: R96, puzzle: Exclusion NG 1)
apparent KD of MS2 coat protein (input ligand: FMN 200 uM): 0.0182 µM | apparent KD of MS2 coat protein [2]: 0.0109 µM | apparent KD of MS2 coat protein (input ligand: none): 0.0148 µM

AUAAAGUGAGGAUAUCCAAUAUAUGACAUGAGGAUCACCCAUGUUUCCACUCGUACCUCCGGAGAAGGCACAAUUU [Ex5 #63] (Eterna round: R97, puzzle: Exclusion 5)
apparent KD of MS2 coat protein (input ligand: FMN 200 uM): 0.0245 µM | apparent KD of MS2 coat protein (input ligand: none): 0.0292 µM

AUAAAUCAUGUAGGAUAUGCAUAGCAAAGCUAUGCAGAAGGACAUGAGGAUCACCCAUGUCAUUCCGUCUGGAGACAGACGGGA [Mat - Exclusion NG 1 - Mod of JL - D57] (Eterna round: R96, puzzle: Exclusion NG 1)
apparent KD of MS2 coat protein (input ligand: FMN 200 uM): 0.129 µM | apparent KD of MS2 coat protein [2]: 0.0264 µM | apparent KD of MS2 coat protein (input ligand: none): 0.032 µM

AUAAGCCCGGCAGGAUAUCACAGGUUGCCGGGUAUCAACAUGAGGAUCACCCAUGUACACCUGCUUGAGAAGGGCCCAAGGGCG [Inarza] (Eterna round: R96, puzzle: Exclusion NG 2)
apparent KD of MS2 coat protein (input ligand: FMN 200 uM): 0.163 µM | apparent KD of MS2 coat protein [2]: 0.0696 µM | apparent KD of MS2 coat protein (input ligand: none): 0.0803 µM

AUAAGCUUUGAGAUCCUUAACAUGAGGAUCACCCAUGUUCGUCUUAUGAUGGUCUGAUCCCUGAGGAUCGGACCGUA [Mat - Sensor v3 - turn-off var 1 - JL Mod - D1] (puzzle: Sensor v3, turn-off variant 1)
apparent KD of MS2 coat protein [3]: 0.146 µM | apparent KD of MS2 coat protein [1]: 0.0284 µM | apparent KD of MS2 coat protein [4]: 0.186 µM

AUAAGUAUAUAGGAUAUCUAGCUGGAAACAGCUAGAGAAGGAUGUACAUGAGGAUCACCCAUGUAAAUCAAUAG [Ex6/8-A2] (Eterna round: R97, puzzle: Exclusion 6)
apparent KD of MS2 coat protein (input ligand: FMN 200 uM): 0.0179 µM | apparent KD of MS2 coat protein (input ligand: none): 0.0196 µM
